Source: patent US20070134249A1 (GENITOPE, published 2007)

Tests used:
Assay in all cases: ELISA
Set-up in all cases: key to grade: 0 = <0.5 OD, 1 = 0.5-1.0 OD, 4 = 1-4 OD
710 = target: T1, 710
T1 construct: H1-8 L2-8; also called PIN710

551 = target: T2, 551
T2 construct: H3-23 L1-40; also called PIN551

1131 = target: T3, 1131
T3 construct: H4-31 L3-25; also called PIN1131

305 = target: T4, 305
T4 construct: H3-48 L1-40; also called PIN305

231 = target: T5, 231
T5 construct: H3-48 L2-14; also called PIN231

164 = target: T6, 164
T6 construct: H4-39 L2-14; also called PIN164

662 = target: T7, 662
T7 construct: fully human Id protein; also called PIN662
T7 sequence (heavy, as listed by the source): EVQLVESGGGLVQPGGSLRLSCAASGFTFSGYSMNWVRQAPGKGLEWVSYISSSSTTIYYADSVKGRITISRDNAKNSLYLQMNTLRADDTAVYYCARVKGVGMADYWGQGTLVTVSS

Measured: grade

B1: mAb clone 4H11 (antibody, V domains shown)
VH: EVKLVESGGGLVKPGGSLKLSCAASGFAFSNYDMSWVRQTPEKRLEWVATIRSDDSYTYYPDSVKGRFTISRDNARNTLYLQMSSLRSEDTAFYYCARREGNYAMDYWGQGTSVTVSS
VL: DIQMTQSPASLSVSVGETVTITCRASENIYSYLAWYQQKKGKSPQLLVYAATNLGDGVPTRFSGSGSGTQYSLKINSLQSEDFGSYYCQHFWGNPLTFGAGTKLELKR
notes: Mouse hybridoma mAb
4: all assays above
